For test [1], the target named is T1, Human trkC (KIRA assay) (human, UniProt Q16288 32-839, limits assumed). Nature of the test: cell-based or functional assay.
For test [2], the target named is Rat trkC on trigeminal neurons (rat, UniProt Q03351 32-864). The experiment in a line: cell-based or functional assay.
Test [3] deals with T2, Human trkC-Fc fusion protein (human, UniProt Q16288 32-429).
T2 construct: Immobilised on CM5 chip for BIAcore; also called htrkC; not shown: Fc part not described
Nature of the test: BIAcore SPR.

In test [4] the target is T2, Human trkC-Fc fusion protein. Nature of the test: BIAcore SPR; value used in the footnote to calculate KD of the mutants.
Test [5] shares this target. Nature of the test: BIAcore SPR, Fab on human trkC. The procedure: (§1) Affinities of anti-trkC Fabs and monoclonal antibodies were determined using the BIAcore 3000™ surface plasmon resonance (SPR) system (BIAcore, INC, Piscaway N.J.). CM5 chips were activated with N-ethyl-N′-(3-dimethylaminopropyl)-carbodiimide hydrochloride (EDC) and N-hydroxysuccinimide (NHS) according to the supplier's instructions. Human or rat trkC-Fc fusion protein was diluted into 10 mM sodium acetate pH 5.0 and injected over the activated chip at a concentration of 0.005 mg/mL. Using variable flow time across the individual chip channels, two ranges of antigen density were achieved: 200-400 response units (RU) for detailed kinetic studies and 500-1000 RU for screening assays. The chip was blocked with ethanolamine. […] HBS-EP buffer (0.01M HEPES, pH 7.4, 0.15 NaCl, 3 mM EDTA, 0.005% Surfactant P20) was used as running buffer for all the BIAcore assays. […] The concentrations of the Fab proteins are determined by ELISA and/or SDS-PAGE electrophoresis using a Fab of known concentration (as determined by amino acid analysis) as a standard. Kinetic association rates (kₒₙ) and dissociation rates (koff) are obtained simultaneously by fitting the data to a 1:1 Langmuir binding model (Karlsson, R. Roos, H. Fagerstam, L. Petersson, B. (1994). Methods Enzymology 6. 99-110) using the BlAevaluation program. Equilibrium dissociation constant (KD) values are calculated as koff/kₒₙ.
(§2) We prepared antibody clones bearing the CDR and/or framework region substitution mutations shown in Table 1 and determine KD and other kinetic parameters using BIAcore analysis as described herein.

A further test has as its target T3, Human trkA (human, UniProt P04629 33-423, limits assumed).
T3 construct: BIAcore essentially as for trkC; construct not described
The experiment in a line: BIAcore SPR.

The next test addresses T4, Rat trkA (rat, UniProt P35739 33-418, limits assumed).
T4 construct: BIAcore essentially as for trkC; construct not described
The experiment in a line: BIAcore SPR.

The target of another test is T5, Rat trkB (rat, UniProt Q63604 32-429, limits assumed).
T5 construct: BIAcore essentially as for trkC; construct not described
The experiment in a line: BIAcore SPR.

The target of the next test is T6, Human trkB (human, UniProt Q16620 32-430, limits assumed).
T6 construct: BIAcore essentially as for trkC; construct not described
Nature of the test: BIAcore SPR.

Test [6] has as its target T1, Human trkC (KIRA assay). The experiment in a line: cell-based or functional assay. The source holds these as a separate data set.
The target of test [7] is T2, Human trkC-Fc fusion protein. The experiment in a line: BIAcore SPR, Fab over immobilised human trkC-Fc. As to the method:
as §1, §2

Test [8] shares this target. The experiment in a line: BIAcore SPR, human trkC-Fc on chip; KD calculated from koff with 2256 kon 5E5 1/Ms.
Test [9] deals with T7, Rat trkC-Fc fusion protein (rat, UniProt Q03351 32-429).
T7 construct: Immobilised on CM5 chip for BIAcore; not shown: Fc part not described
Nature of the test: BIAcore SPR, Fab over immobilised rat trkC-Fc. The procedure:
as §1

Substitutions are numbered along the chain they refer to. Several values for one entry are separate records, joined by “and”; a condition that tells them apart may be missing. Identical values can stand only once.

T1 sequence (Q16288 32-839 limits assumed): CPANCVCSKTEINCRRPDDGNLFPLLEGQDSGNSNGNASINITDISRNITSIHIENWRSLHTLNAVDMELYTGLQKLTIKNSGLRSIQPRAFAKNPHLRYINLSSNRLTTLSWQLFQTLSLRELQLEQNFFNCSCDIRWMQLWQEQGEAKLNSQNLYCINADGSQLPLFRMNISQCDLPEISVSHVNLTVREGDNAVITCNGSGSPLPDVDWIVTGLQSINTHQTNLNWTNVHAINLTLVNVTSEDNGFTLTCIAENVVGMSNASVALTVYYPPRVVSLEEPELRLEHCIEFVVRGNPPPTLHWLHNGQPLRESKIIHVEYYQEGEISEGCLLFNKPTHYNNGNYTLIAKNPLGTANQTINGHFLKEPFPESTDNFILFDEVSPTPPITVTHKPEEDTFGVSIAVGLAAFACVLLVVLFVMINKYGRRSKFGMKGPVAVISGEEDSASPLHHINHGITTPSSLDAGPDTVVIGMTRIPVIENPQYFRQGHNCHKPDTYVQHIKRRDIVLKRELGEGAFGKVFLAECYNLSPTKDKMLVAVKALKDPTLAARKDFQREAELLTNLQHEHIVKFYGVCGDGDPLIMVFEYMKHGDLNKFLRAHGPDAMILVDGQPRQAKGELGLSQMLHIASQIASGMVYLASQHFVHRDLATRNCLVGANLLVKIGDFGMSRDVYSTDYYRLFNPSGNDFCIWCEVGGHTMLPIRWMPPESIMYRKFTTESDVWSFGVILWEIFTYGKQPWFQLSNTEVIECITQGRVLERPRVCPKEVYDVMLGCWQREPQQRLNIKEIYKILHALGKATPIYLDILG
Chain of Rat trkC on trigeminal neurons (Q03351 32-864): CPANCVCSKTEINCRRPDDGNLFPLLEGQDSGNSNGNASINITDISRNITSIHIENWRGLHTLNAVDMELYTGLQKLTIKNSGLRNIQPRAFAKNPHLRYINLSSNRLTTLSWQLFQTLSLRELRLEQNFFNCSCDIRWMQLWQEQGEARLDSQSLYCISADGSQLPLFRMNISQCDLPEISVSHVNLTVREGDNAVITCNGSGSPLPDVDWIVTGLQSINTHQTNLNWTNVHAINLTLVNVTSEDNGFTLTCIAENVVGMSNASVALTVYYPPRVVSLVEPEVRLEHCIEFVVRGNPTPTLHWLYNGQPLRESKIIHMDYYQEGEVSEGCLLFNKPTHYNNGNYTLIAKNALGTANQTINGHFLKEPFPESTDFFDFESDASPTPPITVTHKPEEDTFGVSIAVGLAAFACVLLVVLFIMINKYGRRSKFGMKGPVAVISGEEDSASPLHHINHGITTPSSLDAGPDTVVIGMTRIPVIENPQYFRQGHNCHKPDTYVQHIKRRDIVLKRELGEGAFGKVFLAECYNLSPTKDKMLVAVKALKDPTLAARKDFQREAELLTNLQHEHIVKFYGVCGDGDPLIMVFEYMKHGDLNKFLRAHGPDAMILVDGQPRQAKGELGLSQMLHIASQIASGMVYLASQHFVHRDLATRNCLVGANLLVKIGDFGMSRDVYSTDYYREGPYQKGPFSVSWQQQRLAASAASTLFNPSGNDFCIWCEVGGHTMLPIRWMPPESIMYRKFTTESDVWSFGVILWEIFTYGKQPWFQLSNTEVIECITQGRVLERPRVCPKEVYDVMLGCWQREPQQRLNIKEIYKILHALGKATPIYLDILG
T6 sequence (Q16620 32-430 limits assumed): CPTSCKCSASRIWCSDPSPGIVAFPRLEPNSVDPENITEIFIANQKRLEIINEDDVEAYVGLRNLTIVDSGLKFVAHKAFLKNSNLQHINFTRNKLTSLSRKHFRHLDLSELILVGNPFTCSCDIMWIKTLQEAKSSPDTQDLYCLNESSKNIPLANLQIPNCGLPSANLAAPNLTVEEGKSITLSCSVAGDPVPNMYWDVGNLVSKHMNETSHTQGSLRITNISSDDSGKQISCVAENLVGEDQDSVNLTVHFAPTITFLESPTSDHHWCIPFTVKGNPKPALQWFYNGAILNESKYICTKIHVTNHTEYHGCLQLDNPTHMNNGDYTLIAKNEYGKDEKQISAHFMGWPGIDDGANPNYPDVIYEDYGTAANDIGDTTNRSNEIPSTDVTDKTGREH
T5 sequence (Q63604 32-429 limits assumed): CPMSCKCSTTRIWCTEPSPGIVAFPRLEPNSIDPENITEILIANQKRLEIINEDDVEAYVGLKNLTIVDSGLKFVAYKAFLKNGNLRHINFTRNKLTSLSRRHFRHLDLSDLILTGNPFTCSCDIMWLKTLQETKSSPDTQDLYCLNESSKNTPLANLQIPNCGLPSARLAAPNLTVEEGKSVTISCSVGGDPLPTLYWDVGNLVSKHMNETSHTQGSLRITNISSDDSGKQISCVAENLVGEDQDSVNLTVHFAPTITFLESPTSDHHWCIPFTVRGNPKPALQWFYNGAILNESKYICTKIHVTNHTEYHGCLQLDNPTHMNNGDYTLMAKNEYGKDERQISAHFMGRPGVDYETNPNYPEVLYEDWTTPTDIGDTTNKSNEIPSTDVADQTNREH
T4 sequence (P35739 33-418 limits assumed): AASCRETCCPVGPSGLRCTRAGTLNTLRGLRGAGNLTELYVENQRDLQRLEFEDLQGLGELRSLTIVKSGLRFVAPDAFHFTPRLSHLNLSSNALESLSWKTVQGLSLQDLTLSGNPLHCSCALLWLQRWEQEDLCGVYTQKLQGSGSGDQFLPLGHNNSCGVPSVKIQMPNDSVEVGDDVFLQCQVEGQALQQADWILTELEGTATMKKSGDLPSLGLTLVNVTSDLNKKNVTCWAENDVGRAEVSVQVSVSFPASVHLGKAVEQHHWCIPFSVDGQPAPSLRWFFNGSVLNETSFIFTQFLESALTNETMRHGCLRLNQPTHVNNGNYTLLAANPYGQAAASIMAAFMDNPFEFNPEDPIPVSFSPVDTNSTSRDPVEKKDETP
T3 sequence (P04629 33-423 limits assumed): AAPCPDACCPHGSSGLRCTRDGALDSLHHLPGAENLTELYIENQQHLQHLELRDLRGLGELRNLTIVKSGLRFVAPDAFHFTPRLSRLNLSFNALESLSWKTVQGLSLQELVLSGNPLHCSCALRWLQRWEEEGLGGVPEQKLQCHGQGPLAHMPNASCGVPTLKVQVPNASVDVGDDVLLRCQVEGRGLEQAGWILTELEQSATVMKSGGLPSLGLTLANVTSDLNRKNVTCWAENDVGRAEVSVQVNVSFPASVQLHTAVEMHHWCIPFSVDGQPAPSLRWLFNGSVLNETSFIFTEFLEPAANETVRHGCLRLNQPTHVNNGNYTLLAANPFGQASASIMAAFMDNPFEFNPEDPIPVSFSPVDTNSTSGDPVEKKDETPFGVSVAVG

B1: Mouse monoclonal agonist anti-trkC antibody 2256 (antibody, V domains shown)
VH: QVQLQQPGAELVKPGASVKLSCKASGYTFTSYWMHWVKQRPGQGLEWIGEIYPSNGRTNYNEKFKSKATLTVDKSSSTAYMQLSSLTSEDSAVYYCARKYYYGNSYRSWYFDVWGAGTTLTVS
VL: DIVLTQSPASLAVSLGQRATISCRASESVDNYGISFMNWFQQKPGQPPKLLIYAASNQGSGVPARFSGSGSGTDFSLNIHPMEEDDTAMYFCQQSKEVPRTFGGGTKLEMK
notes: Mouse monoclonal antibody
Regarding B1, the “EC50, KIRA assay” value with Human trkC (KIRA assay) [1] was approximately 40 nM. Also, the “EC50, rat trigeminal neuron survival assay” value in test [2] was approximately 5 nM. Further, the equilibrium dissociation constant (Kd) in test [3] was approximately 62 nM.

B2: Fab 2256 (parent) (Fab, V domains shown)
VH: B1 VH
VL: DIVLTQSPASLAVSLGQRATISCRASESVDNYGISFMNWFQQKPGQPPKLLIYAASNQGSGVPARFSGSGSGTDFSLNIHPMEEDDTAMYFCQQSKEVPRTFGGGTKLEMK
As for B2, in test [4], the kon is 500000 M⁻¹ s⁻¹. In addition, in [5], binding was characterised by a dissociation constant (Kd) of 40 nM and the koff turned out to be 0.02 s⁻¹.

B3: Antibody A5, full IgG (antibody, V domains shown)
VH: QVQLVQSGAEVKKPGASVKVSCKASGYTFTSYRIHWVRQAPGQGLEWMGEIYPSNARTNYNEKFKSRVTMTRDTSTSTVYMELSSLRSEDTAVYYCARKYYYGNTRRSWYFDVWGQGTTVTVSS
VL: DIQMTQSPSSLSASVGDRVTITCRASESIDNYGISFLAWYQQKPGKAPKLLIYAASNRGSGVPSRFSGSGSGTDFTFTISSLQPEDIATYYCQQSKTVPRTFGQGTKLEIKR
With B3, the “EC50, neuron survival” value in test [2] was found to be 0.001 nM. In addition, the binding result with Human trkA, in the test with Rat trkA, with Rat trkB and with Human trkB was “no binding” throughout. Also, the “EC50 (read off the curve), KIRA” value in the test with Human trkC (KIRA assay) [6] is approximately 0.1 nM.

B4: Fab clone 129(T8)(H8xE10)(10B) (Fab, V domains shown)
VH: QVQLVQSGAEVKKPGASVKVSCKASGYTFTSYRIHWVRQAPGQGLEWMGEIYPSNSRTNYNEKFKSRVTMTRDTSTSTVYMELSSLRSEDTAVYYCARKYYYGNSRRSWYFDVWGQGTTVTVS
VL: B3 VL
Consider B4, for which the off-rate (koff) in test [7] was 0.0008 s⁻¹; in test [9] it was 0.01 s⁻¹. Also, the Kd in test [8] was 1.6 nM.

B5: Fab clone 129(T8)(H8xE10) (Fab, V domains shown)
VH: B4 VH with V68A, R72G, T74K
VL: B3 VL
On to B5, for which the dissociation rate constant (koff) in test [7] was determined as 0.001 s⁻¹; in test [9], 0.09 s⁻¹. The dissociation constant Kd in [8] is 2 nM.

B6: Fab clone 129(T8)(H8xE10)(10B)(E2) (Fab, V domains shown)
VH: B4 VH with S56G, S105T
VL: B3 VL
In test [7], B6 yielded a Kd of 0.25 nM, a koff of 0.00036 s⁻¹ and a kon of 1.4e+06 M⁻¹ s⁻¹. Moreover, in test [9], the Kd is 6 nM, the off-rate (koff) was found to be 0.0094 s⁻¹ and the kon was 1.5e+06 M⁻¹ s⁻¹.

B7: Fab A5, clone 129(T8)(H8xE10)(10B)(A5) (Fab, V domains shown)
VH: B4 VH with S56A, S105T
VL: B3 VL
notes: purified on Ni-NTA; also called A5 (Fab)
In test [7], B7 came in with a Kd of 0.28 nM, a koff of 0.00037 s⁻¹ and a kon of 1.3e+06 M⁻¹ s⁻¹. The “fold improvement of affinity over parent antibody 2256” value in test [3] came out at 200 fold. Besides, in test [5], binding was characterised by a dissociation constant (Kd) of 0.28 nM and the koff amounted to 0.00037 s⁻¹. In test [9], this molecule had a Kd of 19 nM, a koff of 0.0267 s⁻¹ and a kon of 1.3e+06 M⁻¹ s⁻¹.

B8: Fab clone 129(T8)(H8xE10)(4B) (Fab, V domains shown)
VH: B4 VH with R72G
VL: B3 VL
As for B8, the koff in [7] is 0.002 s⁻¹; in test [9] it was 0.0289 s⁻¹ and 0.0627 s⁻¹. Further, the Kd in test [8] is 4 nM.

The values above are taken from patent publication US20090202526A1 (RINAT NEUROSCIENCE, published 2009).
